The results in this text go back to article PMC9915621.

Where two headings read alike, the source gives them in different places.

Assay in all cases: EMSA
Series [1] deals with T1, PlzA WT (Borrelia burgdorferi B31, UniProt O51675 1-261).
T1 sequence: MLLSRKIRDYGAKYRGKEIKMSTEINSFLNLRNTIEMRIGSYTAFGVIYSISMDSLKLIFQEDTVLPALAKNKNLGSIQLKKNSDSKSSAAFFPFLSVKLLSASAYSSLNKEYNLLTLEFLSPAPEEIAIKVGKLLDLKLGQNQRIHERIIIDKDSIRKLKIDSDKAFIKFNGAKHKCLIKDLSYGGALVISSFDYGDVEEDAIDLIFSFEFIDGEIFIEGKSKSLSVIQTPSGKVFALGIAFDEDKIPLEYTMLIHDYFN

The target in series [2] is T2, PlzA CTD (Borrelia burgdorferi B31, UniProt O51675 142-261).
T2 sequence: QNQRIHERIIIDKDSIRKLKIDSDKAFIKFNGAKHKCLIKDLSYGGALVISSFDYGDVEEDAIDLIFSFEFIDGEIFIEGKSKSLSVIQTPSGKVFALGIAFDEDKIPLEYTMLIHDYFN

In series [3] the target is T1, PlzA WT. This is another data set of the same source.
Series [4] deals with T3, PlzA RD-RD (Borrelia burgdorferi B31, UniProt O51675 1-261, R145D;R149D).
T3 sequence: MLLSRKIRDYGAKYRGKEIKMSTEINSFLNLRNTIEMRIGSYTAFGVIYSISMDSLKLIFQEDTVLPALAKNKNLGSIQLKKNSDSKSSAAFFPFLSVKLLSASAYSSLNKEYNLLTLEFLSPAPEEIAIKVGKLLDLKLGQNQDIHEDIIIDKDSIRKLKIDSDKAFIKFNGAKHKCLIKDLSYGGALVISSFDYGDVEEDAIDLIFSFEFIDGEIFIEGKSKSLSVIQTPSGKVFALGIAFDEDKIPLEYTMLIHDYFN

Series [5] addresses T1, PlzA WT. The source holds these as a separate data set.
Series [6] addresses T1, PlzA WT. This is another data set of the same source.
In series [7] the target is T1, PlzA WT. This is another data set of the same source.
The target in series [8] is T3, PlzA RD-RD. The source holds these as a separate data set.

B1: glpFKD(-7/+35) (dsDNA)
DNA 1: ATTAAATATAATTTTAATAAGGCTTTTATTAGAAAAATTAAT
DNA 2: ATTAATTTTTCTAATAAAAGCCTTATTAAAATTATATTTAAT
Usually Kd stands for the free concentration of one partner at which half of the binding sites on the other are occupied at equilibrium, for simple one-to-one binding. A lower Kd goes with higher affinity. Turning to B1, the Kd in series [1] was determined as 1330 nM; in series [3], 2810 nM; in series [5] it was 1090 nM; in series [6] it was 4220 nM; in series [7] it was 1250 nM. For the same molecule, the binding result in series [2] and in series [4] was “no binding” each time.
ATTAAATATAATTTTAATAAGGCTTTTATTAGAAAAATTAAT (ssDNA) [ssglpF] displayed a Kd in series [5] of 4420 nM.
Regarding AUAAUUUUAAUAAGGCUUUUAUUAGAAAAAUUAAU (ssRNA) [glpFKD(UTR) RNA], the binding result in series [2] and in series [8] was “no binding” throughout. Besides, the figures for the Kd in series [5] and in series [6] were 950 nM and 4140 nM, respectively.
